Consider one molecule from paper doi:10.1101/2020.02.02.931204, “Fast Transport of RNA Granules by Direct Interactions with KIF5A/KLC1 Motors Prevents Axon Degeneration” (bioRxiv, 2020).

In the assay the target is T1, KLC1 (TPR1-6) fragment, human KNS2 residues 205-501 (human, UniProt Q07866 205-501).
T1 construct: KLC1 (KNS2), human, residues 205-501 (TPR1-6), in the pET28MHL vector; No removal of the tag is described; also called purified human KLC1; source: E. coli BL21 (DE3), purified (Ni-NTA, Superdex-200 gel filtration)
T1 sequence (Q07866 205-501): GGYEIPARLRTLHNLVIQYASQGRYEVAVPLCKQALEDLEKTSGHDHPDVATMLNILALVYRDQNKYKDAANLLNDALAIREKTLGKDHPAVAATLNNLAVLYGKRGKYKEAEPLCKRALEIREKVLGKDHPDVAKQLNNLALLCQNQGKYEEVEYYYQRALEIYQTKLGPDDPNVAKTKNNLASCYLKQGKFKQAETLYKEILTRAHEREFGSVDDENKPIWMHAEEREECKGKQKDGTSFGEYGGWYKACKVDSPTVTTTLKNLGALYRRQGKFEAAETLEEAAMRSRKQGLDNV
The assay is described as follows: ITC; KLC1 (TPR1-6) at 20μM in the cell, SFPQ peptide at 200μM in the syringe, 30 injections of 4μL; 20mM HEPES pH 7.5, 150mM NaCl, 0.5mM TCEP, 2% DMSO, 25°C; single site model. Conditions: both partners purified.

B1: SFPQ WT peptide spanning the Y-acidic motif (peptide)
peptide: ESEMEDAYHEHQANLLR
notes: SFPQ, human, stretch of the coiled coil domain with the Y-acidic motif; the underlined Y is Y527; also called long SFPQ peptide; WT SFPQ; source: synthetic peptide (KE BioChem)
As to B1, the affinity, expressed as Kd, was 3.8 ± 2.3 µM and the “stoichiometry N” value was 1.
